The supplement of paper PMC10266784

B1: library; numbered along this chain (parent)
chain: MAAAAAAAAEQQSSNGPVKKSMREKAVERRSVNKEHNSNFKAGYIPIDEDRLHKTGLRGRKGNLAICVIILLFILAVINLIITLVIWAVIRIGPNGCDSMEFHESGLLRFKQVSDMGVIHPLYKSTVGGRRNENLVITGNNQPIVFQQGTTKLSVENNKTSITSDIGMQFFDPRTQNILFSTDYETHEFHLPSGVKSLNVQKASTERITSNATSDLNIKVDGRAIVRGNEGVFIMGKTIEFHMGGNMELKAENSIILNGSVMVSTTRLPSSSSGDQLGSGDWVRYKLCMCADGTLFKVQVTSQNMGCQISDNPCGNTH

Variants of: B1
Assay: SGCB cell-surface expression functional score (HA stain, bin4 vs bin1, normalised to synonymous) (log10 ratio); higher = more cell-surface SGCB (functional)
How it was run: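 Sorting and sequencing yield the functional score, defined as the log ratio of a variant's highest-bin frequency to its lowest-bin frequency, with the median taken over codons and replicate transductions. The libraries, codon-saturation sets of HA-tagged, YFP-fused human beta-sarcoglycan, went into HEK293 cells stably carrying alpha-, gamma- and delta-sarcoglycan by duplicate lentiviral transduction at MOI <0.1. Cells were stained on ice with Alexa Fluor 647 anti-HA, fixed and split into four 5% intensity bins, and synonymous variants were scaled per section to mean 0, SD 0.5.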

In order of falling “SGCB cell-surface expression functional score (log10)” value:
1. MAAAAAAAAEQQSSNGPVKKSMREKAVERRSVNKEHNSNFKAGYIPIDEDRLHKTGLRGRKGNLAICVIILLFILAVINLIITLVIWAVIRIGPNGCDSMEFHESGLLRFKQVSDMGVIHPLYKSTVGGRRNENLVITGNNQPIVFQQGTTKLSVENNKTSITSDIGMQFFDPRTQNILFSTDYETHEFHLPSGVKSLNVQKASTERITSNATSDLNIKVDGRAIVRGNEGVFIMGKTIEFHMGGNMELKAENSIILNGSVMVSTTRLPSSSSGDQLGSGDWVRYKLCMDADGTLFKVQVTSQNMGCQISDNPCGNTH [C290D]  0.2
2. MAAAAAAAAEQQSSNGPVKKSMREKAVERRSVNKEHNSNFKAGYIPIDEDRLHKTGLRGRKGNLAICVIILLFILAVINLIITLVIWAVIRIGPNGCDSMEFHESGLLRFKQVSDMGVIHPLYKSTVGGRRNENLVITGNNQPIVFQQGTTKLSVENNKTSITSDIGMQFFDPRTQNILFSTDYETHEFHLPSGVKSLNVQKASTERITSNATSDLNIKVDGRAIVRGNEGVFIMGKTIEFHMGGNMELKAENSIILNGSVMVSTTRLPSSSSGDQLGSGDWVRYKLCNCADGTLFKVQVTSQNMGCQISDNPCGNTH [M289N]  0.11
3. MAAAAAAAAEQQSSNGPVKKSMREKAVERRSVNKEHNSNFKAGYIPIDEDRLHKTGLRGRKGNLAICVIILLFILAVINLIITLVIWAVIRIGPNGCDSMEFHESGLLRFKQVSDMGVIHPLYKSTVGGRRNENLVITGNNQPIVFQQGTTKLSVENNKTSITSDIGMQFFDPRTQNILFSTDYETHEFHLPSGVKSLNVQKASTERITSNATSDLNIKVDGRAIVRGNEGVFIMGKTIEFHMGGNMELKAENSIILNGSVMVSTTRLPSSSSGDQLGSGDWVRYKLCMIADGTLFKVQVTSQNMGCQISDNPCGNTH [C290I]  0.02
4. MAAAAAAAAEQQSSNGPVKKSMREKAVERRSVNKEHNSNFKAGYIPIDEDRLHKTGLRGRKGNLAICVIILLFILAVINLIITLVIWAVIRIGPNGCDSMEFHESGLLRFKQVSDMGVIHPLYKSTVGGRRNENLVITGNNQPIVFQQGTTKLSVENNKTSITSDIGMQFFDPRTQNILFSTDYETHEFHLPSGVKSLNVQKASTERITSNATSDLNIKVDGRAIVRGNEGVFIMGKTIEFHMGGNMELKAENSIILNGSVMVSTTRLPSSSSGDQLGSGDWVRYKLCYCADGTLFKVQVTSQNMGCQISDNPCGNTH [M289Y]  0.01
5. MAAAAAAAAEQQSSNGPVKKSMREKAVERRSVNKEHNSNFKAGYIPIDEDRLHKTGLRGRKGNLAICVIILLFILAVINLIITLVIWAVIRIGPNGCDSMEFHESGLLRFKQVSDMGVIHPLYKSTVGGRRNENLVITGNNQPIVFQQGTTKLSVENNKTSITSDIGMQFFDPRTQNILFSTDYETHEFHLPSGVKSLNVQKASTERITSNATSDLNIKVDGRAIVRGNEGVFIMGKTIEFHMGGNMELKAENSIILNGSVMVSTTRLPSSSSGDQLGSGDWVRYKLCMEADGTLFKVQVTSQNMGCQISDNPCGNTH [C290E]  0.01
6. MAAAAAAAAEQQSSNGPVKKSMREKAVERRSVNKEHNSNFKAGYIPIDEDRLHKTGLRGRKGNLAICVIILLFILAVINLIITLVIWAVIRIGPNGCDSMEFHESGLLRFKQVSDMGVIHPLYKSTVGGRRNENLVITGNNQPIVFQQGTTKLSVENNKTSITSDIGMQFFDPRTQNILFSTDYETHEFHLPSGVKSLNVQKASTERITSNATSDLNIKVDGRAIVRGNEGVFIMGKTIEFHMGGNMELKAENSIILNGSVMVSTTRLPSSSSGDQLGSGDWVRYKLCMAADGTLFKVQVTSQNMGCQISDNPCGNTH [C290A]  -0.08
7. MAAAAAAAAEQQSSNGPVKKSMREKAVERRSVNKEHNSNFKAGYIPIDEDRLHKTGLRGRKGNLAICVIILLFILAVINLIITLVIWAVIRIGPNGCDSMEFHESGLLRFKQVSDMGVIHPLYKSTVGGRRNENLVITGNNQPIVFQQGTTKLSVENNKTSITSDIGMQFFDPRTQNILFSTDYETHEFHLPSGVKSLNVQKASTERITSNATSDLNIKVDGRAIVRGNEGVFIMGKTIEFHMGGNMELKAENSIILNGSVMVSTTRLPSSSSGDQLGSGDWVRYKLCMGADGTLFKVQVTSQNMGCQISDNPCGNTH [C290G]  -0.08
8. MAAAAAAAAEQQSSNGPVKKSMREKAVERRSVNKEHNSNFKAGYIPIDEDRLHKTGLRGRKGNLAICVIILLFILAVINLIITLVIWAVIRIGPNGCDSMEFHESGLLRFKQVSDMGVIHPLYKSTVGGRRNENLVITGNNQPIVFQQGTTKLSVENNKTSITSDIGMQFFDPRTQNILFSTDYETHEFHLPSGVKSLNVQKASTERITSNATSDLNIKVDGRAIVRGNEGVFIMGKTIEFHMGGNMELKAENSIILNGSVMVSTTRLPSSSSGDQLGSGDWVRYKLCMKADGTLFKVQVTSQNMGCQISDNPCGNTH [C290K]  -0.15
9. MAAAAAAAAEQQSSNGPVKKSMREKAVERRSVNKEHNSNFKAGYIPIDEDRLHKTGLRGRKGNLAICVIILLFILAVINLIITLVIWAVIRIGPNGCDSMEFHESGLLRFKQVSDMGVIHPLYKSTVGGRRNENLVITGNNQPIVFQQGTTKLSVENNKTSITSDIGMQFFDPRTQNILFSTDYETHEFHLPSGVKSLNVQKASTERITSNATSDLNIKVDGRAIVRGNEGVFIMGKTIEFHMGGNMELKAENSIILNGSVMVSTTRLPSSSSGDQLGSGDWVRYKLCLCADGTLFKVQVTSQNMGCQISDNPCGNTH [M289L]  -0.19
10. MAAAAAAAAEQQSSNGPVKKSMREKAVERRSVNKEHNSNFKAGYIPIDEDRLHKTGLRGRKGNLAICVIILLFILAVINLIITLVIWAVIRIGPNGCDSMEFHESGLLRFKQVSDMGVIHPLYKSTVGGRRNENLVITGNNQPIVFQQGTTKLSVENNKTSITSDIGMQFFDPRTQNILFSTDYETHEFHLPSGVKSLNVQKASTERITSNATSDLNIKVDGRAIVRGNEGVFIMGKTIEFHMGGNMELKAENSIILNGSVMVSTTRLPSSSSGDQLGSGDWVRYKLCRCADGTLFKVQVTSQNMGCQISDNPCGNTH [M289R]  -0.22
11. MAAAAAAAAEQQSSNGPVKKSMREKAVERRSVNKEHNSNFKAGYIPIDEDRLHKTGLRGRKGNLAICVIILLFILAVINLIITLVIWAVIRIGPNGCDSMEFHESGLLRFKQVSDMGVIHPLYKSTVGGRRNENLVITGNNQPIVFQQGTTKLSVENNKTSITSDIGMQFFDPRTQNILFSTDYETHEFHLPSGVKSLNVQKASTERITSNATSDLNIKVDGRAIVRGNEGVFIMGKTIEFHMGGNMELKAENSIILNGSVMVSTTRLPSSSSGDQLGSGDWVRYKLCKCADGTLFKVQVTSQNMGCQISDNPCGNTH [M289K]  -0.23
12. MAAAAAAAAEQQSSNGPVKKSMREKAVERRSVNKEHNSNFKAGYIPIDEDRLHKTGLRGRKGNLAICVIILLFILAVINLIITLVIWAVIRIGPNGCDSMEFHESGLLRFKQVSDMGVIHPLYKSTVGGRRNENLVITGNNQPIVFQQGTTKLSVENNKTSITSDIGMQFFDPRTQNILFSTDYETHEFHLPSGVKSLNVQKASTERITSNATSDLNIKVDGRAIVRGNEGVFIMGKTIEFHMGGNMELKAENSIILNGSVMVSTTRLPSSSSGDQLGSGDWVRYKLCVCADGTLFKVQVTSQNMGCQISDNPCGNTH [M289V]  -0.24
13. MAAAAAAAAEQQSSNGPVKKSMREKAVERRSVNKEHNSNFKAGYIPIDEDRLHKTGLRGRKGNLAICVIILLFILAVINLIITLVIWAVIRIGPNGCDSMEFHESGLLRFKQVSDMGVIHPLYKSTVGGRRNENLVITGNNQPIVFQQGTTKLSVENNKTSITSDIGMQFFDPRTQNILFSTDYETHEFHLPSGVKSLNVQKASTERITSNATSDLNIKVDGRAIVRGNEGVFIMGKTIEFHMGGNMELKAENSIILNGSVMVSTTRLPSSSSGDQLGSGDWVRYKLCMHADGTLFKVQVTSQNMGCQISDNPCGNTH [C290H]  -0.47
14. MAAAAAAAAEQQSSNGPVKKSMREKAVERRSVNKEHNSNFKAGYIPIDEDRLHKTGLRGRKGNLAICVIILLFILAVINLIITLVIWAVIRIGPNGCDSMEFHESGLLRFKQVSDMGVIHPLYKSTVGGRRNENLVITGNNQPIVFQQGTTKLSVENNKTSITSDIGMQFFDPRTQNILFSTDYETHEFHLPSGVKSLNVQKASTERITSNATSDLNIKVDGRAIVRGNEGVFIMGKTIEFHMGGNMELKAENSIILNGSVMVSTTRLPSSSSGDQLGSGDWVRYKLCMFADGTLFKVQVTSQNMGCQISDNPCGNTH [C290F]  -0.75
15. MAAAAAAAAEQQSSNGPVKKSMREKAVERRSVNKEHNSNFKAGYIPIDEDRLHKTGLRGRKGNLAICVIILLFILAVINLIITLVIWAVIRIGPNGCDSMEFHESGLLRFKQVSDMGVIHPLYKSTVGGRRNENLVITGNNQPIVFQQGTTKLSVENNKTSITSDIGMQFFDPRTQNILFSTDYETHEFHLPSGVKSLNVQKASTERITSNATSDLNIKVDGRAIVRGNEGVFIMGKTIEFHMGGNMELKAENSIILNGSVMVSTTRLPSSSSGDQLGSGDWVRYKLCSCADGTLFKVQVTSQNMGCQISDNPCGNTH [M289S]  -0.79
16. MAAAAAAAAEQQSSNGPVKKSMREKAVERRSVNKEHNSNFKAGYIPIDEDRLHKTGLRGRKGNLAICVIILLFILAVINLIITLVIWAVIRIGPNGCDSMEFHESGLLRFKQVSDMGVIHPLYKSTVGGRRNENLVITGNNQPIVFQQGTTKLSVENNKTSITSDIGMQFFDPRTQNILFSTDYETHEFHLPSGVKSLNVQKASTERITSNATSDLNIKVDGRAIVRGNEGVFIMGKTIEFHMGGNMELKAENSIILNGSVMVSTTRLPSSSSGDQLGSGDWVRYKLCTCADGTLFKVQVTSQNMGCQISDNPCGNTH [M289T]  -0.81
17. MAAAAAAAAEQQSSNGPVKKSMREKAVERRSVNKEHNSNFKAGYIPIDEDRLHKTGLRGRKGNLAICVIILLFILAVINLIITLVIWAVIRIGPNGCDSMEFHESGLLRFKQVSDMGVIHPLYKSTVGGRRNENLVITGNNQPIVFQQGTTKLSVENNKTSITSDIGMQFFDPRTQNILFSTDYETHEFHLPSGVKSLNVQKASTERITSNATSDLNIKVDGRAIVRGNEGVFIMGKTIEFHMGGNMELKAENSIILNGSVMVSTTRLPSSSSGDQLGSGDWVRYKLCPCADGTLFKVQVTSQNMGCQISDNPCGNTH [M289P]  -1.06
18. MAAAAAAAAEQQSSNGPVKKSMREKAVERRSVNKEHNSNFKAGYIPIDEDRLHKTGLRGRKGNLAICVIILLFILAVINLIITLVIWAVIRIGPNGCDSMEFHESGLLRFKQVSDMGVIHPLYKSTVGGRRNENLVITGNNQPIVFQQGTTKLSVENNKTSITSDIGMQFFDPRTQNILFSTDYETHEFHLPSGVKSLNVQKASTERITSNATSDLNIKVDGRAIVRGNEGVFIMGKTIEFHMGGNMELKAENSIILNGSVMVSTTRLPSSSSGDQLGSGDWVRYKLCQCADGTLFKVQVTSQNMGCQISDNPCGNTH [M289Q]  -1.35
19. MAAAAAAAAEQQSSNGPVKKSMREKAVERRSVNKEHNSNFKAGYIPIDEDRLHKTGLRGRKGNLAICVIILLFILAVINLIITLVIWAVIRIGPNGCDSMEFHESGLLRFKQVSDMGVIHPLYKSTVGGRRNENLVITGNNQPIVFQQGTTKLSVENNKTSITSDIGMQFFDPRTQNILFSTDYETHEFHLPSGVKSLNVQKASTERITSNATSDLNIKVDGRAIVRGNEGVFIMGKTIEFHMGGNMELKAENSIILNGSVMVSTTRLPSSSSGDQLGSGDWVRYKLCWCADGTLFKVQVTSQNMGCQISDNPCGNTH [M289W]  -1.6
